In the DeepSol protein solubility set:

Assay: soluble on expression in E. coli; label from the status in PepcDB or PDB records

Sequence | soluble on expression in E. coli
MFNYERPKHFIQSQNPCGSRLQPPGPETSSFSSQTKQSSIIIQPRQCTEQRFSASSTLSSHITMSSSAFPASPQQHAGSNPGQRVTTTYNQSPASFLSSILPSQPDYNSSKIPSAMDSNYQQSSAGQPINAKPSQTANAKPIPRTPDHEIQGSKEALIQDLERKLKCKDTLLHNGNQRLTYEEKMARRLLGPQNAAAVFQAQDDSGAQDSQQHNSEHARLQVPTSQVRSRSTSRGDVNDQDAIQEKFYPPRFIQVPENMSIDEGRFCRMDFKVSGLPAPDVSWYLNGRTVQSDDLHKMIVSEKGLHSLIFEVVRASDAGAYACVAKNRAGEATFTVQLDVLAKEHKRAPMFIYKPQSKKVLEGDSVKLECQISAIPPPKLFWKRNNEMVQFNTDRISLYQDNTGRVTLLIKDVNKKDAGWYTVSAVNEAGVTTCNTRLDVTARPNQTLPAPKQLRVRPTFSKYLALNGKGLNVKQAFNPEGEFQRLAAQSGLYESEEL | soluble
MENLKIRYIDTRKIGTVSGVKVPVKKGYKIVVEDEEKGEDIVEVLGYSREESKNGIQPRFVRVANKRDLEIFKKNMRESERAFEICKEKIKEHGLDMHLLKAYIPLNRKKVFFYYLAEERVDFRNLVRDLAKIFKRRIEMRQIGVRDAVQMKGWIGRCMRETCCSQFMENFQSISLRDITEQNLPLSPSKFTGPCGRLVCCMAFERENYLLKILFPEPGTKLCYNKQEVTLLEVDPLRETVVLQYDELGKKVELGVRDMLPKGYEKALEHCRSCQFCCRRVYEEATEHEIVKSSAELEHHHHHH | not soluble
MLCTVTEKLYYDDMYMKEFQAEVVSVDSNGIVLDRTAFYPTGGGQPNDTGIIVNDDKTYRVVDVQKHGDDVVHILESVDGLKAGDRIYGKIDWERRYAHMRYHTAIHILDGIVSAKHNSEALLTGGQIYEDRSRIDMNIENFTKEFVDQIIQEANEFISEGHRVYAENISREEAMKRPNLARTEPGRKLIESLPVVRIIVIEGLDEQSDGGTHVANTREVGKIVLRKIENKGRKNKRIEFELSPA | not soluble
MTRAQPEPVQVVKQRRDAALRALVSGVPYITYLGIQFDRRGDELTAVLPFDEKLIGNPMLPAIHGGVTAAFLEVASIIELSWSVLWHEMEQGRLDPDQIEARLPRLPKTIDFTVDYLRSGLPRDAYARARVNRSGRRYASVHVEAWQDNRLRPFAQATGHFLMPARNDLEHHHHHH | soluble
MNVTSKPGELVPESDVAAIMRGTHGDPFRVLGMHGGGGAPLSVRVFAPQAAEVAVLGQGGEVLAPLERIGAEGFFAGTVPGEEKFPYRLRFVSGPHEWEADDPYRFPEVLG | not soluble
MKAERILGALYGQALGDAMGMPSELWPRTRVKAHFGWIDRFLPGPKENNAACYFNRAEFTDDTAMALCLADALLECEGNIDPEIIGRNILAWAERFDAFNKNVLGPTSKIALNAIRDGKPIAALENNGVTNGAAMRVSPLGCLLPPTNLTAFIAEVALASSPTHKSDLAVAGAVVVAWAVSRAVNGDTWQSIADSLPAVAHQAQTARITTFSASLSARLELALNIVRHADGVESASEQLYQIIGAGTSTIESVPCAIAMVELANTDPNRCAVLCANLGGDTDTIGAMATAICGALHGVSAINPQLKQTLDEVNQLDFARYAVALASYRQRREALLEHHHHHH | soluble
MLARYLNLIGRRSASPYRPQRLPAKFDNVIVAMSSGVDSSVAAALFAGEFPNTRGVYMQNWSESQSLDDPGKEPCYERDWRDVNRVAKHLNIRVDKVNFEQDYWIDVFEPMLRGYSEGSTPNPDIGCNKFVKFGKLREWLDEKYGTGNYWLVTGHYARVMQEMNGKGLFHLLRSIYRPKDQSYYLSQINSTVLSSLLLPIGHLTKPEVRDLAKYAGLPTAEKPDSQGICFVNNSQHGKFKNFLKHYLPSSPGDIITVDPQSGAKTTWGRHDGLWSYTIGQKVGISMPQADPNYQGTWFVSEKLRDTNEILIVRGRDNPALYSDTMRIENFSSLGPREDTINAFQNTGALTLQFRSLQVPVQIKSCKLNRSADNLDITIHLASKQRAITPGQSCCLYIDDRVLGSGPISHVNNNDTHA | soluble
MRITDLLSKDVMIMSLQATTKEAAIDEMIASLKSNGKINDEVLFKEAIMNREAQSSTGVGEGIAMPHAKTKAVNEPTVVFAKSEKGLDYNSLDGQPAHLFFMIAAPDGANATHLETLAALSRLLVHPAFVQSLKDAKTPDDVITLFNNEQGDAEE | not soluble
MIDILLCDVIITIGDVEIKAHKTILAAGSTYFKTMFTTPMIARDLATRVNLQMFDKMSSKILYSTYTIGI | not soluble
MGSDKIHHHHHHMRLDLFFDRLLSTEGDKLATVAKNTILEPSVAYFDFTASGLAYRTIEERIASILPRYANTHSEVTNHALFMTELYDEARANLKRHMDLDEEFALFPCGNGSTGAIKKFQELMGLYLPPRTQKRLSLTPDPALFPVVFVGPYEHHSNEVSYRESPCEVVRIPLDSRGLVDMGVLRAKLGEYQGREIITSFSLASNVTGIIIPYEEISALIRKAGGIVTFDMATASSYMNIPSKFFDAAFFSPHKLLGGVGSCGLLAMRKSLIDSTLPPTFAGGGTVTYVSRIDQYYREDPEYREDAGTPGVLQLLRASLAYQLRNEVGLEFIAKRKKELCAPLVEALRKMERVKIYGDIESCNRLGIFAINIEGISPYEVCQRLSREYLIETRAGCSCAGPYGHDLLGLKDDGLFASRPGWVRISVHYSHSLEQIERLLGALEEIARD | not soluble
SVLLQMTQRLALSDAHFRRICQLIYQRAGIVLADHKRDMVYNRLVRRLRALGLDDFGRYLSMLEANQNSAEWQAFINALTTNLTAFFREAHHFPILAEHARRRHGEYRVWSAAASTGEEPYSIAITLADALGMAPGRWKVFASDIDTEVLEKARSGIYRLSELKTLSPQQLQRYFMRGTGPHEGLVRVRQELANYVEFSSVNLLEKQYNVPGPFDAIFCRNVMIYFDKTTQEDILRRFVPLLKPDGLLFAGHSENFSNLVREFSLRGQTVYALS | soluble
MHFKTKLKNRRSEVNTCLCIGLDPDEDDIKNFMKNEEQNGYKNIKNNMNSNNNGIENIIKIGKEILLTDGENIQNLSEEDKFFYFFNHFCFYIINNTKEYALVYKMNFAFYIPYGSVGINALKNVFDYLNSMNIPTMLDMKINDIGNTVKNYRKFIFEYLKSDSCTINVYMGTNMLKDICFDYEKNKYYSAYVLIKTTNKDSFIFQNELSINDKQAYIVMADETQKMATELKIEQNNEFIGFVVGSNAFEEMKIIRNKFPDSYILSPGIGAQNGDLYKTLKNGYNKDYEKLLINVGRAITKSPDPKKSSESYYNQIIQIFKDIENGDNIEQV | soluble
MEGEAELWNFLERHLRSIYEGDWATYEATTHEELSLYEWFVTPHRLDGLPFHRFMVEKNWATRGRAYRLDLLEKRLQRYGDVAIFSYTLLLTVEEEAGLRHRAVNESRVAVRFPEGWKVVHVHKSPAG | soluble
MSLTIAVYGLGKMGLPLAAVFADHGANVIGVDINERVVEMVNKGENHVKEEPGLDELVRRNVEEGRLRATTDGVWAAKSADVMIILVPTLADDRGNLKLEPVYDVANKIAKGLEKGDIVITEATMPPGTTESLIPILEKSGLKLGEFGLAHAPERTMTGTAIRDITGQYPKIVGASDERTLEAVIGLYETINRKGVIPMSSIKAAEAVKVFEGVYRDVNIALANELALWCEEHGLDALEIFNAANTQPYCHLHMPGAGVGGHCIPVYPWFVISLAKKTNPRLIKTAREINDSMPHHIVELTIRGLNEVGKPLKGSNVLVLGLTFRGGVREFTKSPAIDVIKELKEWGARVFTYDPLCNEEDAKRFGAEWKEDFKDVDAIVIVTDHKEFKDLNLEEIAKQVRNRVIVDGRNILDPRKAEKLGFVYLRVGRVEGHHHHHH | soluble
MSLVKNEEKLLEVINKYELNSIFSQEIMPFLELHMFKKNEHICFMNEELNYLYFFVHGKAKVYKTLPNGKSLLLEFYEPVQLIGDLELISKIKANCNVKALKSSLCIAIPIQAVNSIALKDLNFLMYITKNLSNKLAKCSVTSSITITYPLETKLASYLLAMNSNNIIMIDNYSNLADLLGTSYRHLNRVLNKLVEKGIILKDKNEIKILNKEELENICVDLNEGHHHHHH | soluble
MQGVPSNEPMLGQLTDNGRAAEAGLKEGDYIQSINGEKMRSWTDIVSAVKENPEKEMDVAVKRDNKTLHISVTPEAVKDENKKTIGRFGSYAPTEKGVLSAVAYGATSTVDVTKAILTNLSKLVTGQFKLDMLSGPVGIYDMTDQVAKTGI | not soluble
KMPISAGVTVERKLNDYLGIETGLLYSNLRSEGQHLHYLGIPLKANITLMDTKKIDLYATVGGVADKCIAGAPDNSFKEEPIQLAVTAGIGITYKINDRLAVFAEPG | not soluble
MRIGIISVGPGNIMNLYRGVKRASENFEDVSIELVESPRNDLYDLLFIPGVGHFGEGMRRLRENDLIDFVRKHVEDERYVVGVCLGMQLLFEESEEAPGVKGLSLIEGNVVKLRSRRLPHMGWNEVIFKDTFPNGYYYFVHTYRAVCEEEHVLGTTEYDGEIFPSAVRKGRILGFQFHPEKSSKIGRKLLEKVIECSLSRR | soluble
MYIQVLGSAAGGGFPQWNCNCVNCKGYRDGTLKATARTQSSIALSDDGVHWILCNASPDIRAQLQAFAPMQPARALRDTGINAIVLLDSQIDHTTGLLSLREGCPHQVWCTDMVHQDLTTGFPLFNMLSHWNGGLQWNRIELEGSFVIDACPNLKFTPFPLRSAAPPYSPHRFDPHPGDNLGLMVEDTRTGGKLFYAPGLGQVDEKLLAMMHGADCLLVDGTLWEDDEMQRRGVGTRTGREMGHLAQNGPGGMLEVLDGFPRQRKVLIHINNTNPILDENSPERAEVLRRGVEVAFDGMSIELLEHHHHHH | soluble
MGSDKIHHHHHHMILMRISIKGLGISGLYLYERLKQSGFDVTAFDVRRRDFYIPCAYATNFNLMKPFMSRIGIDFDNYVLFRSETITMSGENGSEIEFPSAGLVTFDRNGLQRDMMNRIEMETETKADLVVDATGISRSYLGRINGDLTYYTKEYLTDHVIHRDFYFLFLNRGVGYLWEFPLDRGHFHVGIGSIRRDDLNRIDRYNRIRITGRRIRMKPLFEVASIGNIVGIGESVGTVSPLTGEGILPSIESAELLYQAISDKSDPNEAIRLYLKKLNTSFSHYYKLSDFVRKVQTGKLLRPSNIRYASLITKDMKHFGIDFSLGKAVRALIQ | not soluble
MAVPQLYYFNLRGFGEYIRLLFLDNGIQFEDIRFDYEGKEWQEFKKGMLLGQLPCLKVDRQEIVQTGAIMRHLGRVHEKNLARNFNFSKKYLMGKLTFLEKCGLNGSNEQEATFLDMFFEGVRDVRWKYVRSSRTLKSFWERMWKRPNLNAYLEKRKADKVRINGSDKGMN | not soluble
MTDTQYIGRFAPSPSGELHFGSLIAALGSYLQARARQGRWLVRIEDIDPPREVPGAAETILRQLEHYGLHWDGDVLWQSQRHDAYREALAWLHEQGLSYYCTCTRARIQSIGGIYDGHCRVLHHGPDNAAVRIRQQHPVTQFTDQLRGIIHADEKLAREDFIIHRRDGLFAYNLAVVVDDHFQGVTEIVRGADLIEPTVRQISLYQLFGWKVPDYIHLPLALNPQGAKLSKQNHAPALPKGDPRPVLIAALQFLGQQAEAHWQDFSVEQILQSAVKNWRLTAVPESAIVNSTFSNASC | soluble
PARPFRVSNHDRSSRRGVMASSLQELISKTLDALVIATGLVTLVLEEDGTVVDTEEFFQTLGDNTHFMILEKGQKWMP | soluble
MLNRYYRFAVEKDDPSEAPESGDKPDSQPQKKS | not soluble
